Reference: US20040073001A1 (Kyowa Kirin, published 2004)

T1: GFP-B9L (full-length), full-length B9L cDNA in pEGFP-C2 (plasmid pEGFP-C2B9L) (mouse, UniProt Q67FY2 1-1494)
T1 construct: expressed in mouse 3T3 cells; also called full-length B9L protein; not shown: green fluorescent protein (GFP) as encoded by vector pEGFP-C2 (Clontech)
T1 sequence: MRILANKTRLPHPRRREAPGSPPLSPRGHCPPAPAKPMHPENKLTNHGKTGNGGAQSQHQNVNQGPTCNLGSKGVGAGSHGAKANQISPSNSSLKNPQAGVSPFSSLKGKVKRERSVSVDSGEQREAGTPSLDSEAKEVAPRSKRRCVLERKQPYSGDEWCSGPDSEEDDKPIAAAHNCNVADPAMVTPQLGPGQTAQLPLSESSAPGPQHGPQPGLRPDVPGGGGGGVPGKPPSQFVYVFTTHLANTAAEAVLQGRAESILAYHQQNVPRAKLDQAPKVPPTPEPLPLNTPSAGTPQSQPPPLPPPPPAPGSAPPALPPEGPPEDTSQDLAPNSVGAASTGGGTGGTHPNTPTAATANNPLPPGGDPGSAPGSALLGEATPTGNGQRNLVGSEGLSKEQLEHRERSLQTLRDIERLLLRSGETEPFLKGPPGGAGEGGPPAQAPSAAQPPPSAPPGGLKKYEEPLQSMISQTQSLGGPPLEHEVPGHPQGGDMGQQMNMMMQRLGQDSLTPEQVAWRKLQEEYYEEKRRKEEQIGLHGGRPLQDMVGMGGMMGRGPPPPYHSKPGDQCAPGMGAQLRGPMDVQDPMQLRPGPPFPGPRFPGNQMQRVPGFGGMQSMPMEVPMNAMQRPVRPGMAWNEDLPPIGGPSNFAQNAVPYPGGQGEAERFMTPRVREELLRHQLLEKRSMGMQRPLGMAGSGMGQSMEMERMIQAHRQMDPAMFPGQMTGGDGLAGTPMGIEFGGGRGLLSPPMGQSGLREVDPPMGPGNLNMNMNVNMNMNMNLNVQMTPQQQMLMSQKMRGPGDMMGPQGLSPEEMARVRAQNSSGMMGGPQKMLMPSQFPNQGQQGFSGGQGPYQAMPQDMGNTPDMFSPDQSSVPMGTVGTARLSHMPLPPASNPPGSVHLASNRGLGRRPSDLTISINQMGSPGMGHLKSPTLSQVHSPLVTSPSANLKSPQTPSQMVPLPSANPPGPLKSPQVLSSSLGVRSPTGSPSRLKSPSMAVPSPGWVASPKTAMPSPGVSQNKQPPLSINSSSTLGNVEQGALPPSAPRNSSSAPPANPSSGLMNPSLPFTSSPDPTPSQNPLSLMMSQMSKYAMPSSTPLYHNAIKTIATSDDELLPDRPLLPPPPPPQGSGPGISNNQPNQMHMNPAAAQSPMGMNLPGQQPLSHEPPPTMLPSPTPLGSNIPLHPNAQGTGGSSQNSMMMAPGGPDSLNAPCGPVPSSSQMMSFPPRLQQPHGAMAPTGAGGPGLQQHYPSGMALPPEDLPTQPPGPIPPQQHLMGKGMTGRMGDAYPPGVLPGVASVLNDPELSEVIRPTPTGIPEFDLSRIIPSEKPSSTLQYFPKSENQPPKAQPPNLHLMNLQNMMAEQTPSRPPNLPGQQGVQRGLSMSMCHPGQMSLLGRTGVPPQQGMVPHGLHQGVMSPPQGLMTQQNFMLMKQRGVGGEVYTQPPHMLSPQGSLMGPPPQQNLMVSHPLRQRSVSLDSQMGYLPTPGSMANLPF

B1: GAL4 AD fusion of B9L partial fragment, residues 292-564 of SEQ ID NO: 2 (other, not shown: large carriers)
chain: PSAGTPQSQPPPLPPPPPAPGSAPPALPPEGPPEDTSQDLAPNSVGAASTGGGTGGTHPNTPTAATANNPLPPGGDPGSAPGSALLGEATPTGNGQRNLVGSEGLSKEQLEHRERSLQTLRDIERLLLRSGETEPFLKGPPGGAGEGGPPAQAPSAAQPPPSAPPGGLKKYEEPLQSMISQTQSLGGPPLEHEVPGHPQGGDMGQQMNMMMQRLGQDSLTPEQVAWRKLQEEYYEEKRRKEEQIGLHGGRPLQDMVGMGGMMGRGPPPPYHSK
notes: Two-hybrid prey
B2: GAL4 AD fusion of B9L partial fragment, residues 292-439 of SEQ ID NO: 2 (other, not shown: large carriers)
chain: PSAGTPQSQPPPLPPPPPAPGSAPPALPPEGPPEDTSQDLAPNSVGAASTGGGTGGTHPNTPTAATANNPLPPGGDPGSAPGSALLGEATPTGNGQRNLVGSEGLSKEQLEHRERSLQTLRDIERLLLRSGETEPFLKGPPGGAGEGG
notes: Two-hybrid prey; also called B9L fragment of residues 292-439
B3: GFP-B9L fusion protein (B9L cDNA fragment, SEQ ID NO: 4, in pEGFP-C2) (other)
chain: LANTAAEAVLQGRAESILAYHQQNVPRAKLDQAPKVPPTPEPLPLNTPSAGTPQSQPPPLPPPPPAPGSAPPALPPEGPPEDTSQDLAPNSVGAASTGGGTGGTHPNTPTAATANNPLPPGGDPGSAPGSALLGEATPTGNGQRNLVGSEGLSKEQLEHRERSLQTLRDIERLLLRSGETEPFLKGPPGGAGEGGPPAQAPSAAQPPPSAPPGGLKKYEEPLQSMISQTQSLGGPPLEHEVPGHPQGGDMGQQMNMMMQRLGQDSLTPEQVAWRKLQEEYYEEKRRKEEQIGLHGGRPLQDMVGMGGMMGRGPPPPYHSK
notes: Expressed in COS-7 and NIH 3T3 cells; not shown: green fluorescent protein (GFP) as encoded by vector pEGFP-C2 (Clontech)
B4: Mutated mouse β-catenin S33Y (other, UniProt Q02248 1-781, looked up)
chain: MATQADLMELDMAMEPDRKAAVSHWQQQSYLDYGIHSGATTTAPSLSGKGNPEEEDVDTSQVLYEWEQGFSQSFTQEQVADIDGQYAMTRAQRVRAAMFPETLDEGMQIPSTQFDAAHPTNVQRLAEPSQMLKHAVVNLINYQDDAELATRAIPELTKLLNDEDQVVVNKAAVMVHQLSKKEASRHAIMRSPQMVSAIVRTMQNTNDVETARCTAGTLHNLSHHREGLLAIFKSGGIPALVKMLGSPVDSVLFYAITTLHNLLLHQEGAKMAVRLAGGLQKMVALLNKTNVKFLAITTDCLQILAYGNQESKLIILASGGPQALVNIMRTYTYEKLLWTTSRVLKVLSVCSSNKPAIVEAGGMQALGLHLTDPSQRLVQNCLWTLRNLSDAATKQEGMEGLLGTLVQLLGSDDINVVTCAAGILSNLTCNNYKNKMMVCQVGGIEALVRTVLRAGDREDITEPAICALRHLTSRHQEAEMAQNAVRLHYGLPVVVKLLHPPSHWPLIKATVGLIRNLALCPANHAPLREQGAIPRLVQLLVRAHQDTQRRTSMGGTQQQFVEGVRMEEIVEGCTGALHILARDVHNRIVIRGLNTIPLFVQLLYSPIENIQRVAAGVLCELAQDKEAAEAIEAEGATAPLTELLHSRNEGVATYAAAVLFRMSEDKPQDYKKRLSVELTSSLFRTEPMAWNETADLGLDIGAQGEALGYRQDDPSYRSFHSGGYGQDALGMDPMMEHEMGGHHPGADYPVDGLPDLGHAQDLMDGLPPGDSNQLAWFDTDL
notes: Expressed from pMKITneo in COS-7 or NIH 3T3 cells; also called S33Y β-catenin
B5: GAL4 AD fusion of B9L partial fragment, residues 440-564 of SEQ ID NO: 2 (other, not shown: large carriers)
chain: PPAQAPSAAQPPPSAPPGGLKKYEEPLQSMISQTQSLGGPPLEHEVPGHPQGGDMGQQMNMMMQRLGQDSLTPEQVAWRKLQEEYYEEKRRKEEQIGLHGGRPLQDMVGMGGMMGRGPPPPYHSK
notes: Two-hybrid prey
B6: GAL4 AD fusion of B9L partial fragment, residues 245-439 of SEQ ID NO: 2 (other, not shown: large carriers)
chain: LANTAAEAVLQGRAESILAYHQQNVPRAKLDQAPKVPPTPEPLPLNTPSAGTPQSQPPPLPPPPPAPGSAPPALPPEGPPEDTSQDLAPNSVGAASTGGGTGGTHPNTPTAATANNPLPPGGDPGSAPGSALLGEATPTGNGQRNLVGSEGLSKEQLEHRERSLQTLRDIERLLLRSGETEPFLKGPPGGAGEGG
notes: Two-hybrid prey

How the values were obtained:
[1] = target: T2, GAL4-β-catenin fusion protein (GAL4 BD fused with mouse β-catenin armadillo domain, residues 128 to 683) (yeast; mouse, UniProt P04386 1-147; Q02248 128-683); test: yeast two-hybrid, β-galactosidase activity
T2 construct: Bait of the yeast two-hybrid system; also called mβ-catenin arm; β-catenin arm bait plasmid
Excerpt: The respective bait plasmids were cotransfected with the B9L cDNA fragment-expressing clone obtained by the two-hybrid system in Example 1 into yeast HF7C strain, and the binding between the B9L protein and the respective β-catenin partial fragments were examined by the existence of β-galactosidase activity in the transformants. […] Thus, it was considered that the B9L protein binds to the N-terminal region of β-catenin arm (armadillo repeats 1-6).
In order to further examine which region of the B9L protein binds to the β-catenin arm, two-hybrid system was performed as follows. […] Each plasmid was cotransfected with the β-catenin arm bait plasmid prepared in Example 1 into yeast HF7C strain, and the binding of each B9L protein partial fragment and β-catenin arm was examined based on the presence or absence of β-galactosidase activity in the transformants. […] Thus, the B9L protein was indicated to bind to the β-catenin arm at the region of residues 292-439 in the amino acid sequence represented by SEQ ID NO: 2.

[2] = target: B4; test: co-immunoprecipitation from COS-7 lysates with anti-GFP antibody, Western blotting with anti-β-catenin antibody
Excerpt: The B9L cDNA fragment obtained in Example 1 was inserted into pEGFP-C2, green fluorescent protein (GFP) expression vector (Clontech), to construct an expression plasmid for GFP-B9L fusion protein (hereinafter abbreviated as GFP-B9L). Mutated mouse β-catenin S33Y cDNA wherein serine 33, the target site of GSK-3β-mediated phosphorylation, is substituted with tyrosine was subcloned into animal cell expression plasmid vector pMKITneo (Nakamura et al., Genes to cells 3: 395 (1998)) to construct an expression plasmid for S33Y β-catenin. These plasmids were transfected using LipofectAMINE (Life Technologies) into monkey kidney cell line COS-7 cells (ATCC: CRL-1651) for forced expression. After 24 hr, the cells were harvested to prepare cell lysates by adding buffer A containing 1% Triton X-100. The cell lysates were reacted with anti-GFP antibody or anti-β-catenin antibody at 4° C. for 1 hr to form an immune complex between GFP-B9L or S33Y β-catenin and the respective antibody, and then Protein G-Sepharose 4B (Amersham Pharmacia Biotech), which is capable of binding to IgG, was added to the reaction solution to adsorb the immune complex. The Protein G-Sepharose 4B was washed well with lysis buffer A, and SDS-PAGE sample buffer was added to elute the immune complex. […]

[3] = target: T1, GFP-B9L (full-length), full-length B9L …; test: co-localisation in the nucleus of mouse 3T3 cells, fluorescence microscopy (indirect)
Description: The plasmids for the expression of GFP-B9L and S33Y β-catenin constructed in Example 3 were transfected alone or together into mouse NIH 3T3 cells using Effectene (QIAGEN), and were forcedly expressed. GFP expression vector pEGFP-C2, as a control, was also transfected into mouse NIH 3T3 cells and was forcedly expressed. After 24 hours, the cells were fixed with formaldehyde, stained with anti-β-catenin antibody, reacted with rhodamine isothiocyanate (RITC)-labeled anti-rabbit IgG antibody, and observed by fluorescence microscopy to detect S33Y β-catenin in the cell. GFP-B9L was directly detected by observation of GFP under fluorescence microscopy (with the use of-FITC filter).
The full-length B9L cDNA obtained in Example 1 was inserted into the ECORI-SalI site of pEGFP-C2 to prepare plasmid pEGFP-C2B9L for the expression in animal cells, cotransfected with S33Y β-catenin expression plasmid into mouse 3T3 cells and the plasmids were forcedly expressed as described above, and S33Y β-catenin was. detected in the cells. Similar to theB9L protein fragment obtained by the two hybrid system, both S33Y β-catenin and GFP-B9L (full-length) were localized in the nucleus. Thus, the full-length B9L protein was also confirmed to bind to β-catenin and localizes β-catenin into the nucleus.

binding result [1] | Binder | other results
binds | B1 | 
binds | B2 | 
 | B3 | binding result [2]: binds
no binding | LANTAAEAVLQGRAESILAYHQQNVPRAKLDQAPKVPPTPEPLPLNT (other, not shown: large carriers, Two-hybrid prey) [GAL4 AD fusion of B9L partial fragment, residues 245-291 of SEQ ID NO: 2] | 
 | B4 | binding result [3]: binds
no binding | B5 | 
binds | B6 | 
